This is an account of results in paper PMC6815954, “Rational design of caspase-responsive smart molecular probe for positron emission tomography imaging of drug-induced apoptosis” (Theranostics, 2019).

Substrate in this series: CC(=O)N[C@@H](CC(=O)O)C(=O)N[C@@H](CCC(=O)O)C(=O)N[C@H](C(=O)N[C@@H](CC(=O)O)C(=O)N[C@@H](CSSC(C)(C)C)C(=O)N[C@@H](Cc1cn(CC[N+](C)(C)C[B-](F)(F)F)nn1)C(=O)Nc1ccc2nc(C#N)sc2c1)C(C)C
In words: Enzyme kinetics study of cleavage of 1. The format is biochemical, human. The settings on record: other: 1 at 0.1-2 mM, caspase-3 0.4 μg/1 mL, assay buffer pH 7.4, 37 °C, 1 h, HPLC. The procedure: Figure S17. (A) HPLC traces of probe 1 incubated with the cell lysates of apoptotic HeLa cells for 8 h.
Bottom: probe 1 alone; Top: reduced product (*) and cyclized product (#). (B) The content of 1-dimer after incubation with the cell lysates of apoptotic HeLa cells at different time.
For the enzyme-controlled cleavage kinetics studies, the probe 1 at different concentrations (0.1, 0.25, 0.5, 1, and 2 mM) was incubated with the caspase-3 (0.4 μg/1 mL) assay buffer (pH = 7.4) containing 50 mM HEPES, 100 mM NaCl, 1 mM EDTA, 1 mM DTT, 10% glycerol, and 0.1% CHAPS at 37 °C for 1 h, respectively. Then the caspase-3-cleaved intermediates were characterized by HPLC, and the kinetic parameters were determined according to the method reported previously. 4,5
Figure S18. Kinetic studies for the cleavage of probe 1 towards caspase-3.
Biocompatibility of 1 and 1-NPs
One cancer cell line (HeLa) and three normal cell lines (GES-1, LO2 and HEK293) were cultured in DMEM supplemented with 10% fetal bovine serum (FBS, Gibco). The cells were grown in tissue culture dishes and kept in a humidified atmosphere of 5% CO 2 at 37 °C. The […]
(1 picture or pasted object on this page, not shown here)

B1: caspase-3 (Homo sapiens) (protein)
chain 1: SGISLDNSYKMDYPEMGLCIIINNKNFHKSTGMTSRSGTDVDAANLRETFRNLKYEVRNKNDLTREEIVELMRDVSKEDHSKRSSFVCVLLSHGEEGIIFGTNGPVDLKKITNFFRGDRCRSLTGKPKLFIIQACRGTELDCGIETD
chain 2: SGVDDDMACHKIPVEADFLYAYSTAPGYYSWRNSKDGSWFIQSLCAMLKQYADKLEFMHILTRVNRKVATEFESFSFDATFHAKKQIPCIVSMLTKELYFYH
A word on the Km: it is the substrate concentration at which the rate is half of its maximum. Broadly, the kcat is the number of substrate molecules converted per active site and unit of time at saturation. As a reminder, the kcat/Km is the second-order rate constant that governs catalysis at low substrate concentration. With B1, the Km turned out to be 330.43 µM, the kcat was found to be 6.22 s⁻¹ and the kcat/Km was found to be 17617.56 M⁻¹ s⁻¹.
